Measured values published in paper PMC5473869.
Blank lines part the entries; values can stand above or below the molecule they belong to.

Experiments:
[1] = target: HDAC7 catalytic domain (residues 449–952) (human) (UniProt Q8WUI4); assay: ITC; HDAC7 at 50 µM in the cell, 25 °C; 26 injections of 1.5 µl of SMRT(1255–1452) wild type or alanine mutant at 300 µM; 50 mM KH2PO4/K2HPO4 pH 6.5, 100 mM KCl, 1 mM DTT, 1 mM β-ME; Kd values approximate (noise, aggregation of HDAC7)
[2] = target: HDAC7 catalytic domain (residues 449–952), wild type, purified (human) (UniProt Q8WUI4); assay: ITC; ITC200, HDAC7 50 µM in the cell, SMRT(1255–1452) wild type or alanine mutants 300 µM injected; 50 mM KH2PO4/K2HPO4 pH 6.5, 100 mM KCl, 1 mM DTT, 1 mM β-ME; 25 °C; hampered by precipitation of HDAC7
[3] = target: GST-SMRT (1358–1391) R1381A (human); assay: pull-down; purified GST-peptide or GST control on glutathione sepharose beads, incubated 2 h at 4 °C with supernatant of an E. coli HDAC7 expression lysate; washes with PBS pH 7.3, 3 mM DTT, 0.05% Tween 20, 500 mM NaCl; anti-His western blot
SMRT(1255-1452) (human) [4] = target: SMRT(1255-1452) (human) (UniProt Q9Y618); assay: NMR titration; 15N-1H HSQC of labelled SMRT(1255–1452) titrated with unlabeled HDAC7 (1:0.72, 1:2.2, 1:3.8) or mixed with HDAC7 C535A/H541A (40 µM:144 µM, 1:3.6); peak intensities; 50 mM potassium phosphate, 100 mM KCl, 1 mM DTT, pH 6.5, 25 °C
SMRT(1255-1452) (human) [5] = target: SMRT(1255-1452) (human) (UniProt Q9Y618); assay: MST; Monolith NT.115, SMRT(1255–1452) labelled with NT647, HDAC7 or HDAC7 C535A/H541A 20 nM to 20 µM; 25 mM Tris pH 8.0, 10 mM MgCl2, 150 mM KCl, 0.5% Tween-20; room temperature
SMRT(1255-1452) (human) [6] = target: SMRT(1255-1452) (human) (UniProt Q9Y618); assay: SPR; Biacore 3000, SMRT(1255–1452) amine-coupled to a CM5 chip (5500 RU), HDAC7 injected at 500 nM to 8 µM; 50 mM KH2PO4/K2HPO4 pH 6.5, 100 mM KCl, 1 mM DTT; two-step (three-state) model, overall apparent Kd
SMRT(1255-1452) (human) [7] = target: SMRT(1255-1452) (human) (UniProt Q9Y618); assay: NMR titration; 15N-labelled SMRT(1255-1452) with 0.72, 2.2 and 3.8 molar equivalents of unlabelled wt-HDAC7; relative HSQC peak intensities fitted to a bimolecular binding equation; 25 °C, 50 mM potassium phosphate pH 6.5, 100 mM KCl, 1 mM DTT; rough estimates, HDAC7 precipitated

Molecule: SMRT(1255-1452) R1360A (from UniProt Q9Y618 1255-1452) (domain or fragment)
Kd [1]: 19 µM

Molecule: SMRT(1255-1452) E1376A (from UniProt Q9Y618 1255-1452) (domain or fragment)
Kd [1]: 34 µM

Molecule: SMRT(1255–1452) (from UniProt Q9Y618 1255-1452) (domain or fragment)
Kd [2]: 14.1 µM

Molecule: SMRT(1255-1452) R1381A (from UniProt Q9Y618 1255-1452) (domain or fragment)
Kd [1]: 55 µM

B2: HDAC7 catalytic domain (residues 449–952), wild type, purified (domain or fragment)
chain: LLWEQQRLAGRLPRGSTGDTVLLPLAQGGHRPLSRAQSSPAAPASLSAPEPASQARVLSSSETPARTLPFTTGLIYDSVMLKHQCSCGDNSRHPEHAGRIQSIWSRLQERGLRSQCECLRGRKASLEELQSVHSERHVLLYGTNPLSRLKLDNGKLAGLLAQRMFVMLPCGGVGVDTDTIWNELHSSNAARWAAGSVTDLAFKVASRELKNGFAVVRPPGHHADHSTAMGFCFFNSVAIACRQLQQQSKASKILIVDWDVHHGNGTQQTFYQDPSVLYISLHRHDDGNFFPGSGAVDEVGAGSGEGFNVNVAWAGGLDPPMGDPEYLAAFRIVVMPIAREFSPDLVLVSAGFDAAEGHPAPLGGYHVSAKCFGYMTQQLMNLAGGAVVLALEGGHDLTAICDASEACVAALLGNRVDPLSEEGWKQKPNLNAIRSLEAVIRVHSKYWGCMQRLASCPDSWVPRVPGADKEEVEAVTALASLSVGILAEDRPSEQLVEEEEPMNL
Kd (SMRT(1255-1452) (human) [4]): < 40 µM
Kd (SMRT(1255-1452) (human) [5]): 2.8 µM
Kd (SMRT(1255-1452) (human) [6]): 2.1 µM

B3: HDAC7 catalytic domain (residues 449–952) (domain or fragment)
chain: B2 chain
Kd (SMRT(1255-1452) (human) [7]): 19 µM

The remaining lines, values ahead:

Kd [1]: 43 µM
Molecule: SMRT(1255-1452) K1384A (from UniProt Q9Y618 1255-1452) (domain or fragment)

fold reduction of affinity against wild-type SMRT(1255–1452) [2]: 4 fold
Molecule: SMRT(1255–1452) R1381A (from UniProt Q9Y618 1255-1452) (domain or fragment)

Kd [1]: 37 µM
Molecule: SMRT(1255-1452) V1372A (from UniProt Q9Y618 1255-1452) (domain or fragment)

Kd [1]: 7.5 µM
Molecule: SMRT(1255-1452) L1379A (from UniProt Q9Y618 1255-1452) (domain or fragment)

Kd [1]: 28 µM
Molecule: SMRT(1255-1452) L1386A (from UniProt Q9Y618 1255-1452) (domain or fragment)

fold reduction of binding against wild-type GST-SMRT (1358–1391) [3]: 4 fold
B1: HDAC7 (residues 449–952), wild type, hexahistidine-tagged, in E. coli expression lysate (domain or fragment)
chain: B2 chain
